Reference: PMC12531337

Target: T1, ZEB2 ZnF8 peptide (UniProt O60315 1055-1076)
T1 chain: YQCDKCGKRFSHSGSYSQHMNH
Test: NMR

B1: ZnF-binding DNA (E2 box) (dsDNA)
DNA 1: GTAATCTGGGCCACCTGCCTGGGAGGA
DNA 2: TCCTCCCAGGCAGGTGGCCCAGATTAC
B1: binds.
